Experiments:
[1] = target: Nucleolysin TIA-1 (endogenous mouse TIA1) (mouse) (UniProt P52912); test: TIA1 IP-MS, tau KO 1 cortex
[2] = target: Nucleolysin TIA-1 (endogenous mouse TIA1) (mouse) (UniProt P52912); test: TIA1 IP-MS, tau KO 2 cortex
[3] = target: Nucleolysin TIA-1 (endogenous mouse TIA1) (mouse) (UniProt P52912); test: TIA1 IP-MS, WT2 cortex
[4] = target: Nucleolysin TIA-1 (endogenous mouse TIA1) (mouse) (UniProt P52912); test: TIA1 IP-MS, WT3 cortex
[5] = target: Nucleolysin TIA-1 (endogenous mouse TIA1) (mouse) (UniProt P52912); test: TIA1 IP-MS, WT1 cortex
[6] = target: Nucleolysin TIA-1 (endogenous mouse TIA1) (mouse) (UniProt P52912); test: TIA1 IP-MS, tau KO 3 cortex

Sequence of UniProt P52912 (P52912 whole entry): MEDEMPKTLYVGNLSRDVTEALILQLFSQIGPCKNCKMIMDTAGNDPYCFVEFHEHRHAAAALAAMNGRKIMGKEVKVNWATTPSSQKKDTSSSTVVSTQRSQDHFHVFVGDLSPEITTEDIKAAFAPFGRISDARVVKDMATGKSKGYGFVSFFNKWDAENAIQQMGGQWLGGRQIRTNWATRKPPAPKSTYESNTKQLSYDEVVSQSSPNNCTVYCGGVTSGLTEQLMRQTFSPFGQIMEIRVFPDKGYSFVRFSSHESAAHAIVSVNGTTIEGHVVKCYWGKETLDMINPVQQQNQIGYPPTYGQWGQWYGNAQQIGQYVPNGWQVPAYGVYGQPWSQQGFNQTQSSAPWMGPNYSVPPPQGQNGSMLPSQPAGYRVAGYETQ

Row | total ion current (normalized to TIA1 = 1000) [1] | total ion current (normalized to TIA1 = 1000) [2] | total ion current (normalized to TIA1 = 1000) [3] | total ion current (normalized to TIA1 = 1000) [4] | total ion current (normalized to TIA1 = 1000) [5] | total ion current (normalized to TIA1 = 1000) [6] | Substance
1 | 0 | 97.1 | 282 | 0 | 0 | 0 | Isoform 2 of Hepatoma-derived growth factor-related protein 2 (from UniProt Q3UMU9 1-667)
2 | 0 | 39.6 | 42.5 | 48.2 | 0 | 0 | Isoform 2 of Heterogeneous nuclear ribonucleoprotein F (from UniProt Q9Z2X1 1-395)
3 | 19.8 | 48.5 | 249 | 0 | 14.7 | 0 | Isoform 2 of Heterogeneous nuclear ribonucleoprotein Q (from UniProt Q7TMK9 2-562)
4 | 0 | 59.6 | 37.8 | 137 | 0 | 0 | Isoform 2 of Homer protein homolog 1 (from UniProt Q9Z2Y3 1-370)
5 | 0 | 59 | 64.7 | 37.6 | 0 | 0 | Isoform 2 of MICOS complex subunit Mic60 (from UniProt Q8CAQ8 34-746)
6 | 0 | 0 | 175 | 48.2 | 0 | 0 | Isoform 2 of NAD-dependent protein deacetylase sirtuin-2 (from UniProt Q8VDQ8 1-352)
7 | 0 | 0 | 98.3 | 0 | 0 | 239 | Isoform 2 of Paraspeckle component 1 (from UniProt Q8R326 1-466)
8 | 0 | 31.4 | 20.1 | 0 | 0 | 0 | Isoform 2 of Phosphatidylinositol-binding clathrin assembly protein (from UniProt Q7M6Y3 2-597)
9 | 0 | 99.8 | 136 | 0 | 0 | 0 | Isoform 2 of Plasminogen activator inhibitor 1 RNA-binding protein (from UniProt Q9CY58 1-392)
10 | 0 | 91.6 | 98.7 | 8.56 | 0 | 0 | Isoform 2 of Protein-L-isoaspartate(D-aspartate)-O-methyltransferase (from UniProt P23506 2-228)
11 | 0 | 21.5 | 36.6 | 0 | 0 | 0 | Isoform 2 of Sarcoplasmic/endoplasmic reticulum calcium ATPase 2 (from UniProt O55143 1-998)
12 | 0 | 52.7 | 94.7 | 75.6 | 0 | 0 | Isoform 2 of Septin-4 (from UniProt P28661 1-459)
13 | 0 | 43 | 46.1 | 0 | 0 | 0 | Isoform 2 of Sideroflexin-3 (from UniProt Q91V61 1-288)
14 | 0 | 0 | 269 | 0 | 0 | 0 | Isoform 2 of Sodium-driven chloride bicarbonate exchanger (from UniProt Q5DTL9 1-1088)
15 | 0 | 0 | 48.2 | 0 | 0 | 0 | Isoform 4 of Phosphatase and actin regulator 1 (from UniProt Q2M3X8 1-649)
16 | 0 | 13 | 108 | 240 | 0 | 0 | Isoform A1-I of V-type proton ATPase 116 kDa subunit a isoform 1 (from UniProt Q9Z1G4 1-838)
17 | 0 | 190 | 372 | 515 | 0 | 0 | Isoform A of Cytosolic acyl coenzyme A thioester hydrolase (from UniProt Q91V12 1-338)
18 | 0 | 248 | 159 | 68.8 | 0 | 0 | Isoform B of AP-2 complex subunit alpha-1 (from UniProt P17426 1-955)
19 | 0 | 13 | 148 | 0 | 0 | 0 | Isoform Beta-II of Protein kinase C beta type (from UniProt P68404 2-673)
20 | 0 | 49.2 | 57.7 | 0 | 0 | 0 | Isoform Cytoplasmic of Fumarate hydratase, mitochondrial (from UniProt P97807 1-467)
21 | 0 | 96.4 | 187 | 298 | 0 | 0 | Isoform Glt-1A of Excitatory amino acid transporter 2 (from UniProt P43006 1-569)
22 | 0 | 35.6 | 53.3 | 0 | 0 | 0 | Isoform I of Septin-6 (from UniProt Q9R1T4 2-427)
23 | 0 | 891 | 1130 | 722 | 0 | 0 | Isoform M1 of Pyruvate kinase PKM (from UniProt P52480 1-531)
24 | 0 | 0 | 184 | 101 | 0 | 0 | Isoform Mt-VDAC1 of Voltage-dependent anion-selective channel protein 1 (from UniProt Q60932 2-283)
25 | 5.22 | 0 | 0 | 0 | 7.28 | 0 | Isovaleryl-CoA dehydrogenase, mitochondrial (from UniProt Q9JHI5 31-424)
26 | 0 | 0 | 0 | 0 | 8.5 | 0 | Ketimine reductase mu-crystallin (from UniProt O54983 1-313)
